From patent US20240287484

Legend:
Settings in all cases: qPCR; 3 mM MgCl2, 37 C
[1] = tested on: T1, MG153-14 RT (uncultivated organism (metagenomic))
T1 sequence: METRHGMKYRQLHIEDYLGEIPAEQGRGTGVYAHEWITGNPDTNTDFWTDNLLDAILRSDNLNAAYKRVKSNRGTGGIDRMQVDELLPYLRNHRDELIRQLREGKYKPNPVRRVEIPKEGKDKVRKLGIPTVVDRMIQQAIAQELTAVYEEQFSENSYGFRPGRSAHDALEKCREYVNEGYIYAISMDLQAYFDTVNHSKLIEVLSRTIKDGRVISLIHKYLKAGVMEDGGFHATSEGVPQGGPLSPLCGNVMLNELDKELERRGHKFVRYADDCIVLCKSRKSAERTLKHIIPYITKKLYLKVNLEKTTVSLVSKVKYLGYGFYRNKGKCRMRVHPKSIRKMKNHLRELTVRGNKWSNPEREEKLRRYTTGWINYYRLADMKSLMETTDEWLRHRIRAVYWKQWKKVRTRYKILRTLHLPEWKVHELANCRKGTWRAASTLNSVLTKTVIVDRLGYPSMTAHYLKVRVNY

[2] = tested on: T2, MG153-26 RT (uncultivated organism (metagenomic))
T2 sequence: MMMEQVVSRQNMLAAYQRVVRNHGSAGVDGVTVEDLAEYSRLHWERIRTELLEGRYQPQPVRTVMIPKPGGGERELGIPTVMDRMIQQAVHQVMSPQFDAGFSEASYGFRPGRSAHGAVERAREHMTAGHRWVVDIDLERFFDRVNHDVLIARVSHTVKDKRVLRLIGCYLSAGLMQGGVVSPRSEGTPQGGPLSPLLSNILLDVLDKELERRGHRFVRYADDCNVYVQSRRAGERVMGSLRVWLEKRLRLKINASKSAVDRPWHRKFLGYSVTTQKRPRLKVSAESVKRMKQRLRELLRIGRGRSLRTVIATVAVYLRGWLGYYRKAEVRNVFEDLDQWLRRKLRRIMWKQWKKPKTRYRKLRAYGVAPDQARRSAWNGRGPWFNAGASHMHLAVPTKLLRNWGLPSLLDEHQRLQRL

[3] = tested on: T3, MG153-27 RT (uncultivated organism (metagenomic))
T3 sequence: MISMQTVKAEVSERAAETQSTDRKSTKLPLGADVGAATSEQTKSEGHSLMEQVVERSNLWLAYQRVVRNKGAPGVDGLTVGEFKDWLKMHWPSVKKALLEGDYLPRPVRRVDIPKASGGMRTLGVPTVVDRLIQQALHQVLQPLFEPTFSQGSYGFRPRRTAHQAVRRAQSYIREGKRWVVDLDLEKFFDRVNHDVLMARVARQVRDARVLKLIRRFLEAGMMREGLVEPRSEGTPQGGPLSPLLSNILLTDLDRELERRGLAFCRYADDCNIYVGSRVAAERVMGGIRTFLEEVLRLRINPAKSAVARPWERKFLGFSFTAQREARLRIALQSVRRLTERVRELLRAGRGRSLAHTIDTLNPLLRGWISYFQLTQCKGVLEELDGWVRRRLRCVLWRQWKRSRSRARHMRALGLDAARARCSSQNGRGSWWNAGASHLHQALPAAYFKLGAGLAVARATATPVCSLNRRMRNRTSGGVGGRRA

[4] = tested on: T4, MG153-19 RT (uncultivated organism (metagenomic))
T4 sequence: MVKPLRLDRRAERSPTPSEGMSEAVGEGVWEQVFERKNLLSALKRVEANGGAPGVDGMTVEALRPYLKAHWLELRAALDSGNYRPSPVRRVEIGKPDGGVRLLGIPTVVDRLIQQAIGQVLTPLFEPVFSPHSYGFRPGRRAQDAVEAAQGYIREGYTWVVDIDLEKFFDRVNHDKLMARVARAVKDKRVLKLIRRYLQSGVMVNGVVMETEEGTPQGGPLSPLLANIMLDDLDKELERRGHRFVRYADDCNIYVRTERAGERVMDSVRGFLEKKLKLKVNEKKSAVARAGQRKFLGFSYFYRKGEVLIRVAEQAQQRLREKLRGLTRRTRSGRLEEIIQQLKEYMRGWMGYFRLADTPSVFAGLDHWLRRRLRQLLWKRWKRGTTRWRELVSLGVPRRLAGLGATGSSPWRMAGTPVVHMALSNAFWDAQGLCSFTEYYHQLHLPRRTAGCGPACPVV

[5] = tested on: T5, MG153-28 RT (uncultivated organism (metagenomic))
T5 sequence: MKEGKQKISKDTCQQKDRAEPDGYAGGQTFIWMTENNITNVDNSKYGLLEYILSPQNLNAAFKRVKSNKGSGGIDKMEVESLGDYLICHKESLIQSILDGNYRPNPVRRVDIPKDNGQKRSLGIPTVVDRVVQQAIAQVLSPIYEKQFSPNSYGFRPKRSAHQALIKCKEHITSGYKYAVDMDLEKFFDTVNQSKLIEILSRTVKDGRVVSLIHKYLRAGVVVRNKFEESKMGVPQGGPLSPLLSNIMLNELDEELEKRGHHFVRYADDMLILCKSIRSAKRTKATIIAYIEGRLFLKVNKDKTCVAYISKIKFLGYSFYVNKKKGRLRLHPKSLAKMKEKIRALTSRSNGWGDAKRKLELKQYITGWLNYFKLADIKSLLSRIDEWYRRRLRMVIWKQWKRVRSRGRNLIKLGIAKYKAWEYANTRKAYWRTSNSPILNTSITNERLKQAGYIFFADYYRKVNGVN

[6] = tested on: T6, MG153-8 RT (uncultivated organism (metagenomic))
T6 sequence: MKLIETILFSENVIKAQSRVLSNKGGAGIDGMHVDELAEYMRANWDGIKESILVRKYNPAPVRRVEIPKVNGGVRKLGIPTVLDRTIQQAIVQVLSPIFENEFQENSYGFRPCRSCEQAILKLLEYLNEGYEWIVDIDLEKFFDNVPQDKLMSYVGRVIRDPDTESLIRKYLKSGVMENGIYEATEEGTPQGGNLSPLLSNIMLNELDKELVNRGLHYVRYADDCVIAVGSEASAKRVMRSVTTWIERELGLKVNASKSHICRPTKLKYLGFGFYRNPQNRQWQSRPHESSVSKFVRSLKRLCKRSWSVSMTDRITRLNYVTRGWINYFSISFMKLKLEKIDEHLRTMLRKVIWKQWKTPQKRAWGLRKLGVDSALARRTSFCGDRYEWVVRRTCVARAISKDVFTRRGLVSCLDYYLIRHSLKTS

Measured: activity (fold over background)

200 nt RNA template annealed to DNA primer
> 10: all assays above
